Measurements reported in patent US10781452B2, “FLT3 receptor antagonists for the treatment or the prevention of pain disorders” (INSTITUT NATIONAL DE LA SANTE ET DE LA RECHERCHE MEDICALE …, priority 2010, dated 2020).

Biological target: T1, full-length hFLT3 (Homo sapiens, UniProt P36888)
T1 construct: host or cells: HEK293T
T1 sequence (P36888 27-993): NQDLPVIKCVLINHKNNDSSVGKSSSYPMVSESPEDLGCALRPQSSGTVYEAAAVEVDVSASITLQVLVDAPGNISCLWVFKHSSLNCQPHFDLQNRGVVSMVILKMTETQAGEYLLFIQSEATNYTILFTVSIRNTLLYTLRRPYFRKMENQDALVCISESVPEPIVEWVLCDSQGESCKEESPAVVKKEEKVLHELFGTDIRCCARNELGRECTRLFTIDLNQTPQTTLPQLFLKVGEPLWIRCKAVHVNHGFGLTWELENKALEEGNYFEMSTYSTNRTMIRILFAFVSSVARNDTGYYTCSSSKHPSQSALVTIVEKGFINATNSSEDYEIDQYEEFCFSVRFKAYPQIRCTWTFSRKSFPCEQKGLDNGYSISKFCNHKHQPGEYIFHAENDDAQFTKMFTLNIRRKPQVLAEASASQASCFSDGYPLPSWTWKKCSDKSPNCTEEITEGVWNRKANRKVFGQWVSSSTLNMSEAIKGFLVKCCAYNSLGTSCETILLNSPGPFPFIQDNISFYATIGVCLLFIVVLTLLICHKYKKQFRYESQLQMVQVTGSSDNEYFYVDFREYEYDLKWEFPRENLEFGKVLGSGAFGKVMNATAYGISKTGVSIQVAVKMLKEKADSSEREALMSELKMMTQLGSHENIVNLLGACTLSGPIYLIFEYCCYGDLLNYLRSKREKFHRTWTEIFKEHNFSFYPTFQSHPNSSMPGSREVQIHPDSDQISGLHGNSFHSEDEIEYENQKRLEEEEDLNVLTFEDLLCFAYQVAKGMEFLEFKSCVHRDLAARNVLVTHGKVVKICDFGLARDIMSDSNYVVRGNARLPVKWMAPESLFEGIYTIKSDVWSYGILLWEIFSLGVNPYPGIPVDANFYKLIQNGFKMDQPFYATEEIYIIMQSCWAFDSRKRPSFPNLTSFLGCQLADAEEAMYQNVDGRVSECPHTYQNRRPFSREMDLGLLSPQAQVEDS
Assay: TR-FRET displacement of Red-FL binding, HEK cells expressing full-length hFLT3
Conditions: HEK cells expressing full-length hFLT3, 0.5 nM Red-FL
Procedure: The binding of the A3 antibody to full-length hFLT3 and mFLT3 was measured by displacement of extracellular FL binding on recombinant HEK cells by using time-resolved fluorescence resonance energy transfer (TR-FRET).
Chemicals and reagents. The Tag-lite® labeling medium was from Cisbio Bioassays (Condolet, France). The Lumi4-Tb derivative of O6-Benzylguanine was synthesized by Cisbio Bioassays and is commercialized as SNAP-Lumi4-Tb (Cisbio Bioassays, Ref. SSNPTBE).
A recombinant rh-FLT3-L was produced as previously reported (Verstraete K, et al. Efficient production of bioactive recombinant human Flt3 ligand in E. coli. Protein J, 2009 28: 57-65) and labeled with a red fluorescent probe (Red-FL). Poly-L-ornithine (MW of 30,000-70,000 daltons) was from Sigma-Aldrich. The plasmids encoding for the SNAP tagged human FLT3 (pSNAP-hFLT3) or the mouse FLT3 (pSNAP-mFLT3) used for transient transfection was obtained from Cisbio Bioassays. Monoclonal antibodies against FLT3 (8F2) and phosphotyrosine FLT3 (PY969) were purchased from Cell Signaling Technology and labeled with Lumi4-Tb and d2 respectively, by Cisbio.
Cell culture. HEK293T cells, used for binding assays, were maintained in DMEM Glutamax (Invitrogen) supplemented with antibiotics (penicillin 50 U/ml, streptomycin 50 μg/ml) and 10% heat-inactivated Fetal Calf Serum.
Transfection procedures. […]

B1: A3 antibody: human monoclonal antibody against FLT3; VH SEQ ID NO:1, VL SEQ ID NO:2 (antibody, V domains shown)
VH: EVQLVESGGSLVKPGGSLRLSCAASGFTFSNSYMNWVRQAPGKGLEWISDISGSSRDIDYADFVKGRFTISRDNATNSLYLQMNSLRAEDTAVYYCVRSGNSGMDVWGRGTLVTVSS
VL: QSVLTQPASVSGSPGQSITISCAGTSSDVGGGYYVSWYQQHPGKAPKLMIYYDSYRPSGVSNRFSGSKSGNTASLTISGLQAEDEADYYCSSYTNNSTRVFGGGTKLEIK
modifications: Synthetic VH domain of A3; Synthetic VL region of A3
- IC50, displacement of FL binding: about 17 μg/ml
